The source of these data is patent US20180295858.

The data set deals with T1, H-AAPPA-NH2.
T1 chain: AAPPA

B1: proline tolerant tripeptidyl peptidase TRI083 (protein)
chain: QEPSSCKGTLVFEGETFNVFQPDCLRTEYSVDGYTPSVKSGSRIGFGSFLNESASFADQALFEKHFNIPSQNFSVVLINGGTDLPQPPSDANDGEANLDAQTILTIAHPLPITEFITAGSPPYFPDPVEPAGTPNENEPYLQYYEFLLSKSNAEIPQVITNSYGDEEQTVPRSYAVRVCNLIGLLGLRGISVLHSSGDEGVGASCVATNSTTPQFNPIFPATCPYVTSVGGTVSFNPEVAWAGSSGGFSYYFSRPWYQQEAVGTYLEKYVSAETKKYYGPYVDFSGRGFPDVAAHSVSPDYPVFQGGELTPSGGTSAASPVVAAIVALLNDARLREGKPTLGFLNPLIYLHASKGFTDITSGQSEGCNGNNTQTGSPLPGAGFIAGAHWNATKGWDPTTGFGVPNLKKLLALVRF
As to B1, the “hydrolysis of synthetic substrate AAPPA, LC-MS with label free quantification” value is “over time is able to degrade the peptide AAPPA (FIG. 5) and generate the product AAP (FIG. 6)”.
